Reference: patent publication US20220018842A1 (FUKUSHIMA MEDICAL UNIVERSITY, published 2022)

Tests used:
[1] = molecular target: T1, claudin 6 (CLDN6) protein (human, UniProt P56747 1-220); assay: Western blot of extract of HEK293T cells expressing CLDN6
T1 construct: also called human CLDN6 protein
T1 sequence: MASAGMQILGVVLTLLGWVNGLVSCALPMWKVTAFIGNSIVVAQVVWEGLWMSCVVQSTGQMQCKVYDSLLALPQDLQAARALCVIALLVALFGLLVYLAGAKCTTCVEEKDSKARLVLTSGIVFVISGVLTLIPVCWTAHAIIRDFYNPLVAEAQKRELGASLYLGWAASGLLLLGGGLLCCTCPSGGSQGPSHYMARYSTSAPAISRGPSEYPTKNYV

[2] = molecular target: T2, antigen peptide having the amino acid sequence from the 208th position to the 220th position of the human … (human); assay: ELISA of hybridoma culture supernatant on coated antigen peptide
T2 construct: Coupled to KLH for immunisation
T2 peptide: SRGPSEYPTKNYV
Method: After 4 days of culture, the medium was exchanged with 100 μL of hybridoma medium. Positive clones were screened by ELISA using 50 μL of the culture supernatant 2 days after the exchange. The screening was performed by the following procedure.
First, the antigen peptide solution was diluted to 3 μg/mL, 100 μL was added to each well of a 96-well ELISA plate, and the mixture was allowed to stand overnight at 37° C. Then, the antigen peptide solution was removed from each well, the wells were washed with 200 μL of PBS, then a blocking solution (1% bovine serum albumin/PBS) was added, and the mixture was allowed to stand at 37° C. for 1 hour. Then, the blocking solution was removed from each well, the wells washed with 200 μL of PBS, 50 μL of culture supernatant was added, and the mixture was reacted at 37° C. for 1 hour. After removing the culture supernatant from each well, the wells were washed 3 times with 200 μL of PBS. […] After that, the secondary antibody solution was removed from each well, the wells were washed 3 times with PBS, and then the color was developed using TMB Substrate Set (BioLegend) with the method recommended by the manufacturer, and the absorbance was measured.

CLDN1 = molecular target: T3, CLDN1 (UniProt O95832 1-211, limits assumed); assay: Western blot of extract of HEK293T cells expressing the claudin; undiluted culture supernatant
T3 construct: whole, on cells; also called claudin 1
T3 sequence (looked up): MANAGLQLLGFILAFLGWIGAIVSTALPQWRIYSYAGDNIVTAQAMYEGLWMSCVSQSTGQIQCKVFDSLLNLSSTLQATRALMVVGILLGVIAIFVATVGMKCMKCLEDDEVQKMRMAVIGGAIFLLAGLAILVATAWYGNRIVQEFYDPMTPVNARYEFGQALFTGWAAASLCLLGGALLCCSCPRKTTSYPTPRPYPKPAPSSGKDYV
Method: (§1) 48 hours after the introduction of each gene, protein was extracted using a lysate in which the proteolytic enzyme inhibitor, Complete mini EDTA-free (Roche Diagnostics) was added to CelLytic™ MT Cell Lysis Reagent (Sigma-Aldrich) at a concentration of […]. SDS-PAGE, […], and antibody reaction were sequentially performed according to a standard protocol, chemiluminescence was performed by ECL™ Prime Western Blotting Detection reagent (GE Healthcare), and images were taken using CCD imager Image Quant LAS4000 (GE Healthcare). The primary antibody was reacted overnight at 4° C. using a culture supernatant stock solution of αCLDN6 #C6C15-1, and the secondary antibodies were reacted for 30 minutes using ECL™ Rat IgG, HRP-linked whole antibody (Sigma-Aldrich) diluted 2,000-fold with PBS, and ECL™ Rabbit IgG and HRP-linked whole antibody (Sigma-Aldrich) described in Table 1 diluted 5,000-fold with PBS, respectively.
(§2) In order to confirm the antigen specificity and cross-reactivity of the anti-CLDN6 monoclonal antibody (αCLDN6 #C6C15-1) produced in the Examples, Western blotting was performed for CLDN1, CLDN4, CLDN5, CLDN6, and CLDN9 for verification.

CLDN4 = molecular target: T4, CLDN4 (UniProt O14493 1-209, limits assumed); assay: as above
T4 construct: whole, on cells; also called claudin 4
T4 sequence (looked up): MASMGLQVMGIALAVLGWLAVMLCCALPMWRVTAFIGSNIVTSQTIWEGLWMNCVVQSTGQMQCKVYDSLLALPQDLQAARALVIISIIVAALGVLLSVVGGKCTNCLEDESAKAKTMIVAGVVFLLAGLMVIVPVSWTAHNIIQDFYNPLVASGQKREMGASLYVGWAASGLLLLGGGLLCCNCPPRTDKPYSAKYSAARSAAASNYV
Method: as §1, §2

CLDN5 = molecular target: T5, CLDN5 (UniProt O00501 1-218, limits assumed); assay: as above
T5 construct: whole, on cells; also called claudin 5
T5 sequence (looked up): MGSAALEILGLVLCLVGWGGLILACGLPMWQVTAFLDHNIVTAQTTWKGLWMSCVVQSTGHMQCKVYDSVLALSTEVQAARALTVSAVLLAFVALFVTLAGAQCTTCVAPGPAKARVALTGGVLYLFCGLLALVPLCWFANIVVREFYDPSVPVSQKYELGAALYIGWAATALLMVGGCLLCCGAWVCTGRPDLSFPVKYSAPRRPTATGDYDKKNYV
Method: as §1, §2

CLDN9 = molecular target: T6, CLDN9 (UniProt O95484 1-217, limits assumed); assay: as above
T6 construct: whole, on cells; also called claudin 9
T6 sequence (looked up): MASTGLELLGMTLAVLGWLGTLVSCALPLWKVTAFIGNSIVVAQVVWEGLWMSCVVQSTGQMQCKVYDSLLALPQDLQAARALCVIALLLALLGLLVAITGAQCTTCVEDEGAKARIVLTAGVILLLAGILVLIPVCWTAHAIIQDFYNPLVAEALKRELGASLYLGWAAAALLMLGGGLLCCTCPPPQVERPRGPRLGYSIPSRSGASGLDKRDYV
Method: as §1, §2

- binding result [1]: binds
- binding result [2]: binds
- binding result (CLDN1): no binding
- binding result (CLDN4): no binding
- binding result (CLDN5): no binding
- binding result (CLDN9): no binding
B1: Rat αCLDN6 #C6C15-1 monoclonal antibody (antibody, V domains shown)
VH: EVKLVETGGGLVKPGGSLRLSCATSGFNFNDYFMNWVRQAPGKGLEWVAQIRNKNYNYATYYAESLEGRVTISRDDSKSSVYLQVSSLRAEDTAIYYCTRGAYWGQGVMVTVSS
VL: DIVMTQSPSFLSASVGERVTLSCRASQNINKYLDWYQQKLGEAPKLLIYDTNNLHAGIPSRFSGSGSGTDYTLTISSLQPEDVATYFCLQRNSWPYTFGAGTKLELK
notes: Rat hybridoma monoclonal antibody (detected with anti-rat IgG), used as undiluted culture supernatant; constant regions and isotype are not; also called αCLDN6 #C6C15-1 antibody; ACLDN6 #C6C15-1 antibody
